# Data: IntAct's records for PubMed 21057110
# B1: Arf-GAP with dual PH domain-containing protein 1 (Homo sapiens), O75689 (parent)
# chain: MAKERRRAVLELLQRPGNARCADCGAPDPDWASYTLGVFICLSCSGIHRNIPQVSKVKSVRLDAWEEAQVEFMASHGNDAARARFESKVPSFYYRPTPSDCQLLREQWIRAKYERQEFIYPEKQEPYSAGYREGFLWKRGRDNGQFLSRKFVLTEREGALKYFNRNDAKEPKAVMKIEHLNATFQPAKIGHPHGLQVTYLKDNSTRNIFIYHEDGKEIVDWFNALRAARFHYLQVAFPGAGDADLVPKLSRNYLKEGYMEKTGPKQTEGFRKRWFTMDDRRLMYFKDPLDAFARGEVFIGSKESGYTVLHGFPPSTQGHHWPHGITIVTPDRKFLFACETESDQREWVAAFQKAVDRPMLPQEYAVEAHFKHKP
# Variants of: B1
# Conditions: with ki13b_human KIF13B
row,Variant,effect of a mutation on the interaction
1,MAKERRRAVLELLQRPGNARCADCGAPDPDWASYTLGVFICLSCSGIHRNIPQVSKVKSVRLDAWEEAQVEFMASHGNDAARARFESKVPSFYYRPTPSDCQLLREQWIRAKYERQEFIYPEKQEPYSAGYREGFLWKRGRDNGQFLSRKFVLTEREGALKYFNRNDAKEPKAVMKIEHLNATFQPAKIGHPHGLQVTYLKDNSTRNIFIRHEDGKEIVDWFNALRAARFHYLQVAFPGAGDADLVPKLSRNYLKEGYMEKTGPKQTEGFRKRWFTMDDRRLMYFKDPLDAFARGEVFIGSKESGYTVLHGFPPSTQGHHWPHGITIVTPDRKFLFACETESDQREWVAAFQKAVDRPMLPQEYAVEAHFKHKP [Y211R],disrupting interaction strength
2,MAKERRRAVLELLQRPGNARCADCGAPDPDWASYTLGVFICLSCSGIHRNIPQVSKVKSVRLDAWEEAQVEFMASHGNDAARARFESKVPSFYYRPTPSDCQLLREQWIRAKYERQEFIYPEKQEPYSAGYREGFLWKRGRDNGQFLSRKFVLTEREGALKYFNRNDAKEPKAVMKIEHLNATFQPAKIGHPHGLQVTYLKDNSTRNIFIGHEDGKEIVDWFNALRAARFHYLQVAFPGAGDADLVPKLSRNYLKEGYMEKTGPKQTEGFRKRWFTMDDRRLMYFKDPLDAFARGEVFIGSKESGYTVLHGFPPSTQGHHWPHGITIVTPDRKFLFACETESDQREWVAAFQKAVDRPMLPQEYAVEAHFKHKP [Y211G],disrupting interaction strength
